Assays:
[1] = target: SNAP25197, BoNT/A-cleaved SNAP25 (human) (human, UniProt P60880 1-197); experiment: Western blot, SiMa cell lysates +/- BoNT/A
[2] = target: T1, SNAP25206, full-length SNAP25 (rat) (rat, UniProt P60881 1-206); experiment: Western blot, rat embryonic cortical cell lysates +/- BoNT/A
[3] = target: T2, SNAP25198, BoNT/C-cleaved SNAP25 (human) (human, UniProt P60880 1-198); experiment: Western blot, SiMa cell lysates treated with BoNT/A, BoNT/C, BoNT/E or no toxin
T2 construct: range 1-198

[4] = target: T3, SNAP25180, BoNT/E-cleaved SNAP25 (human) (human, UniProt P60880 1-180); experiment: as above
T3 construct: range 1-180

[5] = target: T4, SNAP25206, full-length SNAP25 (human) (human, UniProt P60880 1-206); experiment: as above
[6] = target: SNAP25197, BoNT/A-cleaved SNAP25 (rat) (rat, UniProt P60881 1-197); experiment: Western blot, summary (rat cortical lysates; SiMa lysates also run)
[7] = target: T4, SNAP25206, full-length SNAP25 (human); experiment: IHC, human back skin biopsies +/- onabotulinumtoxinA (FIG. 9)
[8] = target: T1, SNAP25206, full-length SNAP25 (rat); experiment: IHC, vehicle-treated rat glabrous skin (FIG. 8F-J)

T1 sequence (P60881 whole entry): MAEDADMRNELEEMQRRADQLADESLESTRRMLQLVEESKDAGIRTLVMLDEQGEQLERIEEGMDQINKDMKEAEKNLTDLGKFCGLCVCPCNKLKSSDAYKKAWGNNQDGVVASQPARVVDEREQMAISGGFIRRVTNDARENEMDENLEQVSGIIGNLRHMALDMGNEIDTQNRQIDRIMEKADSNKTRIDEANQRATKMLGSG
T4 sequence (P60880 whole entry): as the sequence (P60881 whole entry) above
Chain of SNAP25197, BoNT/A-cleaved SNAP25 (human) (P60880 1-197 limits assumed): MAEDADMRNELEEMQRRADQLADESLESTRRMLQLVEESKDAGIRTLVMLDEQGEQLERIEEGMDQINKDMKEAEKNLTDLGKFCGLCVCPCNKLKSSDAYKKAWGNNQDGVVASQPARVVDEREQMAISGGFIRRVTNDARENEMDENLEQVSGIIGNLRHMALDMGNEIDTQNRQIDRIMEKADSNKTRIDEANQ
Chain of SNAP25197, BoNT/A-cleaved SNAP25 (rat) (P60881 1-197 limits assumed): as the sequence (P60880 1-197 limits assumed) above
T2 sequence (P60880 1-198 limits assumed): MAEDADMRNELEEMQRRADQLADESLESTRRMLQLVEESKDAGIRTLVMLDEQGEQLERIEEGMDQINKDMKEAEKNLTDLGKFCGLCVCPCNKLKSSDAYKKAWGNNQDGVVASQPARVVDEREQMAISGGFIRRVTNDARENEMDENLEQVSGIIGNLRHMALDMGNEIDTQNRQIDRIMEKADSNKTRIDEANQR
T3 sequence (P60880 1-180 limits assumed): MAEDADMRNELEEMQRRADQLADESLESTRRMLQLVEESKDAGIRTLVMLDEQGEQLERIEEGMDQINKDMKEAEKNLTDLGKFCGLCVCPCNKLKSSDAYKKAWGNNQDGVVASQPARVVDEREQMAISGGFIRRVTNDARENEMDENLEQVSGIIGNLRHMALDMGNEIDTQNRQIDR

| Binder | binding result [1] | binding result [2] | binding result [3] | binding result [4] | binding result [5] | binding result [6] | binding result [7] | binding result [8] |
| --- | --- | --- | --- | --- | --- | --- | --- | --- |
| Ab632 anti-SNAP25197 rMAb (Human-3C1A5) (antibody) heavy: not shown light: DVVMTQTPLTLSVTIGQPASISCKSSQSLLNTNGKTYLTWLIQRPGQSPQRLIYLVSKLDSGVPDRFSGSGSGTDFTLKISRVEAEDLGVYYCLQSSHFPFTFGSGTKLEIKRTVAAPSVFIFPPSDEQLKSGTASVVCLLNNFYPREAKVQWKVDNALQSGNSQESVTEQDSKDSTYSLSSTLTLSKADYEKHKVYACEVTHQGLSSPVTKSFNRGEC | binds | no binding | no binding | no binding | no binding | binds | – | – |
| Ab635 anti-SNAP25197 rMAb (Murine-3C1A5) (antibody) heavy: QVKLQESGAELVKPGASVKISCKASGYTFTDHSIHWVKQKPGQGLEWIGYLFPGNGNFEYNEKFKGKATLTADKSSSTVYMYLNSLTSEDSAVYFCKRMGYWGQGTTVTVSSAKTTPPSVYPLAPGSAAQTNSMVTLGCLVKGYFPEPVTVTWNSGSLSSGVHTFPAVLESDLYTLSSSVTVPSSPRPSETVTCNVAHPASSTKVDKKIVPRDCGCKPCICTVPEVSSVFIFPPKPKDVLTITLTPKVTCVVVDISKDDPEVQFSWFVDDVEVHTAQTQPREEQFNSTFRSVSELPIMHQDWLNGKEFKCRVNSAAFPAPIEKTISKTKGRPKAPQVYTIPPPKEQMAKDKVSLTCMITDFFPEDITVEWQWNGQPAENYKNTQPIMNTNGSYFVYSKLNVQKSNWEAGNTFTCSVLHEGLHNHHTEKSLSHSPGK light: not shown | – | no binding | – | – | – | – | no binding | – |
| original non-recombinant 3C1A5 mAb purified from ascites (antibody, V domains shown) VH: QVKLQESGAELVKPGASVKISCKASGYTFTDHSIHWVKQKPGQGLEWIGYLFPGNGNFEYNEKFKGKATLTADKSSSTVYMYLNSLTSEDSAVYFCKRMGYWGQGTTVTVSS VL: DVVMTQTPLTLSVTIGQPASISCKSSQSLLNTNGKTYLTWLIQRPGQSPQRLIYLVSKLDSGVPDRFSGSGSGTDFTLKISRVEAEDLGVYYCLQSSHFPFTFGSGTKLEIK | – | – | – | – | – | – | – | no binding |
